Assay in all cases: two-hybrid
In experiment [1] the target is Rhodopseudomonas palustris BphP1 (RpBphP1), mammalian two-hybrid construct (Rhodopseudomonas palustris).
For experiment [2], the target named is T1, GAL4-BD-DrBphP, mammalian two-hybrid bait (Deinococcus radiodurans (strain not …, UniProt Q9RZA4)).
For experiment [3], the target named is T1, GAL4-BD-DrBphP, mammalian two-hybrid …. The source holds these as a separate data set.

T1 sequence (Q9RZA4 whole entry, looked up, the tested form may be a part): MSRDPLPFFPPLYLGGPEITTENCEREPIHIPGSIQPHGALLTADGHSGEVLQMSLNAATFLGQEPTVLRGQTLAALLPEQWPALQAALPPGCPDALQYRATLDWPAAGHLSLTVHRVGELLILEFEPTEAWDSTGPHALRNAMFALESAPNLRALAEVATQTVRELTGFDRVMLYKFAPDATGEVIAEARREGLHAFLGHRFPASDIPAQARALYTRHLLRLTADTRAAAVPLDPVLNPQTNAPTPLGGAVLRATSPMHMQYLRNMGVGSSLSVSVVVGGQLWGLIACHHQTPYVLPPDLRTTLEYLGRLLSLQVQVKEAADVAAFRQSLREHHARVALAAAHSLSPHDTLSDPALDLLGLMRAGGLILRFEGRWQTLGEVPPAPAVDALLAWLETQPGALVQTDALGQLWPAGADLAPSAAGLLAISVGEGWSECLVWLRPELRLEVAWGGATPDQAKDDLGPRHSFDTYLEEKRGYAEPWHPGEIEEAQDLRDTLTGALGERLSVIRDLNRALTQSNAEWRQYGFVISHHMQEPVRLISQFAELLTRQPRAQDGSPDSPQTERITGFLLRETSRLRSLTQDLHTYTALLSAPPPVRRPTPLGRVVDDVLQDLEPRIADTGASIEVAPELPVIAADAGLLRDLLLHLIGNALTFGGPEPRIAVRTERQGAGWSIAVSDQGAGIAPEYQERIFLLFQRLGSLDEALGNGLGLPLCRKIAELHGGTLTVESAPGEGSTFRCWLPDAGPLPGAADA

Molecule “PpsR2, mammalian two-hybrid construct (natural protein)” displayed a fold increase of luciferase expression, 775-nm light over dark in experiment [1] of 2.95 fold.

B1: LDB-3-p65, mammalian two-hybrid prey (VHH)
VHH: EVQLQASGGGFVQPGGSLRLSCAASGFTWDHYIMGWFRQAPGKEREFVSAISENGDAWNYYADSVKGRFTISRDNSKNTVYLQMNSLRAEDTATYYCAIGFDVPSGRSWQGSHFWMYWGQGTQVTVSS
B1: the “fold increase of luciferase expression, 654-nm light over dark” value in experiment [2] is roughly 19.5 fold. The “fold increase of GFP level, 654-nm light over dark” value in experiment [3] is roughly 44 fold.

B2: LDB-14-p65, mammalian two-hybrid prey (VHH)
VHH: EVQLQASGGGFVQPGGSLRLSCAASGTTSRWESMGWFRQAPGKEREFVSAISWQNNSVPYYADSVKGRFTISRDNSKNTVYLQMNSLRAEDTATYYCAAQHNFLGHRYWGQGTQVTVSS
Regarding B2, the “fold increase of luciferase expression, 654-nm light over dark” value in experiment [2] was roughly 19.1 fold. Also, the “fold increase of GFP level, 654-nm light over dark” value in experiment [3] was roughly 39 fold.

These data come from PMC7749050 (ACS synthetic biology, 2020).
